Data as given in patent publication US20260151494A1 (ARO BIOTHERAPEUTICS, published 2026).
Where a chain is given by its changes, count along the chain named.

B1: CD71-binding FN3 domain of SEQ ID NO: 136 (designed binder)
chain: MSLPAPKNLVVSRVTEDSARLSWTAPDAAFDSFEIDYVEFIFTGEAIGLIVPGSERSYDLTGLKPGTEYWVTIAGVKGGEWSTPLQAFLTT
B2: CD71-binding FN3 domain of SEQ ID NO: 178 (designed binder)
chain: MGSLPAPKNLVVSRVTEDSARLSWTAPDAAFDSFFIGYLEPQPPGEAISLYVPGSERSYDLTGLKPGTEYNVTIQGVKGGFPSDPLVAHFTT
B3: CD71-binding FN3 domain of SEQ ID NO: 198 (designed binder)
chain: MSLPAPKNLVVSRVTEDSARLSWTAPDAAFDSFLIGYTEYSVYGEAIVLTVPGSERSYDLTGLKPGTEYTVWIMGVKGGIKSTPLSAISTT
B4: CD71-binding FN3 domain of SEQ ID NO: 142 (designed binder)
chain: MSLPAPKNLVVSRVTEDSARLSWTASDAAFDSFHIWYFEKANEGEAIPLVVPGSERSYDLTGLKPGTEYDVDIGGVKGGAWSIPLGARFTT
B5: CD71-binding FN3 domain of SEQ ID NO: 204 (designed binder)
chain: MSLPAPKNLVVSRVTEDSARLSWTAPDAAFDSFLIQYDEWPTYGEAIVLTVPGSERSYDLTGLKPGTEYLVEIVGVKGGNLSGPLSAIFTT
B6: CD71-binding FN3 domain of SEQ ID NO: 163 (designed binder)
chain: MSLPAPKNLVVSRVTEDSARLSWTAPDAAFDSFFIGYLEPQPPGEVIHLYVPGSERSYDLTGLKPGTEYVVFIGGVKGGVWSVPLSAIFTT
B7: CD71-binding FN3 domain of SEQ ID NO: 162 (designed binder)
chain: MSLPAPKNLVVSRVTEDSARLSWTALDAAFDSFEISYWEHTFNGEAIILFVPGSERSYDLTGLKPGTEYYVTIGGVKGGAWSPPLWAEFTT
B8: CD71-binding FN3 domain of SEQ ID NO: 218 (designed binder)
chain: MSLPAPKNLVVSRVTEDSARLSWTAPDAAFDSFEIAYHEDDFYGEAIALLVPGSERSYDLTGLKPGTEYIVHIGGVKGGFFSSPLYAWFTT
B9: CD71-binding FN3 domain of SEQ ID NO: 135 (designed binder)
chain: MSLPAPKNLVVSRVTEDSARLSWTAPDAAFDSFFIGYLEPQSPGEAIALYVPGSERSYDLTGLKPGTEYNVTIQGVKGGFPSEPLIANFTT
B10: CD71-binding FN3 domain of SEQ ID NO: 138 (designed binder)
chain: B6 chain with Y50F, V70N, F72T, G74Q, V80F, W81P, V83M
B11: CD71-binding FN3 domain of SEQ ID NO: 179 (designed binder)
chain: B9 chain with S42P, A48T, Y50L, E83H, I86V, N88T, F89T
B12: CD71-binding FN3 domain of SEQ ID NO: 168 (designed binder)
chain: B9 chain with F34I, S42P, G44D, E83L, I86V, N88T
B13: CD71-binding FN3 domain of SEQ ID NO: 167 (designed binder)
chain: B9 chain with S42P, A48V, Y50T, E83V, I86S, N88A
B14: CD71-binding FN3 domain of SEQ ID NO: 140 (designed binder)
chain: B9 chain with S42P, A48H, E83M, I86S, N88I
B15: CD71-binding FN3 domain of SEQ ID NO: 145 (designed binder)
chain: B9 chain with S42P, Y50L, E83H, I86S, N88K
B16: CD71-binding FN3 domain of SEQ ID NO: 161 (designed binder)
chain: B9 chain with S42P, A48V, Y50T, I86V, N88H
B17: CD71-binding FN3 domain of SEQ ID NO: 180 (designed binder)
chain: B9 chain with S42P, A48S
B18: CD71-binding FN3 domain of SEQ ID NO: 197 (designed binder)
chain: B9 chain with S42P, A48S, Y50L, I86H, N88I
B19: CD71-binding FN3 domain of SEQ ID NO: 147 (designed binder)
chain: B9 chain with S42P, A48E, Y50F, E83G, N88S
B20: CD71-binding FN3 domain of SEQ ID NO: 137 (designed binder)
chain: B9 chain with S42P, A48T, E83D, I86V, N88H
B21: CD71-binding FN3 domain of SEQ ID NO: 143 (designed binder)
chain: MSLPAPKNLVVSRVTEDSARLSWTAPDAAFDSFAIQYVEVIGSGEAIELIVPGSERSYDLTGLKPGTEYHVYIDGVKGGKDSKPLYAGFTT
B22: CD71-binding FN3 domain SEQ ID NO: 235 (designed binder)
chain: MSLPAPKNLVVSRVTEDSARLSWTAPDAAFDSFEIVYAEPVRFGEAIVLTVPGSERSYDLTGLKPGTEYWVQIGGVKGGNWSAPLSAIFTT
B23: CD71-binding FN3 domain SEQ ID NO: 237 (designed binder)
chain: B22 chain with V36A, A38F, P40R, V41T, R42W, N80D, A83K
B24: CD71-binding FN3 domain SEQ ID NO: 242 (designed binder)
chain: B22 chain with V36G, A38F, P40N, V41L, R42Y, F43L, E68K
B25: CD71-binding FN3 domain SEQ ID NO: 251 (designed binder)
chain: B22 chain with V36G, A38F, P40N, V41L, R42Y, F43L, S86V, I88T
B26: CD71-binding FN3 domain SEQ ID NO: 256 (designed binder)
chain: B22 chain with A5V, V36G, A38F, P40N, V41L, R42Y, F43L
B27: CD71-binding FN3 domain SEQ ID NO: 239 (designed binder)
chain: B22 chain with A38Q, P40N, V41S, R42A, F43Y
B28: CD71-binding FN3 domain SEQ ID NO: 249 (designed binder)
chain: B6 chain with F34E, L38W, P40N, Q41A, P42Y, P43R, V46A, H48V, Y50T
B29: CD71-binding FN3 domain SEQ ID NO: 247 (designed binder)
chain: B22 chain with V36G, A38F, P40N, V41L, R42Y, F43L, N80E
B30: CD71-binding FN3 domain SEQ ID NO: 244 (designed binder)
chain: MSLPAPKNLVVSRVTEDSARLSWTAPDAAFDSFEIGYFENLYLGEAIVLTVPGSERSYDLTGLKPGTEYVVFIGGVKGGEYSIPLSAIFTT
B31: CD71-binding FN3 domain SEQ ID NO: 254 (designed binder)
chain: B30 chain with T50W, V70W, F72Q, E80N, Y81W, I83A
B32: CD71-binding FN3 domain SEQ ID NO: 246 (designed binder)
chain: MSLPAPKNLVVSRVTEDSARLSWTAPDAAFDSFEIAYQELSLWGEAIVLTVPGSERSYDLTGLKPGTEYYVHIGGVKGGIWSSPLSAYFTT
B33: CD71-binding FN3 domain SEQ ID NO: 238 (designed binder)
chain: B30 chain with L41D, L43F, E80K, Y81W, I83A
B34: CD71-binding FN3 domain SEQ ID NO: 248 (designed binder)
chain: B30 chain with E80D, Y81F, I83P
B35: CD71-binding FN3 domain SEQ ID NO: 255 (designed binder)
chain: B30 chain with A25T, G36A, N40I, L41A, Y42W, V70W, F72Q, E80A, I83T
B36: CD71-binding FN3 domain SEQ ID NO: 236 (designed binder)
chain: B30 chain with A25E, V70W, F72Q, E80N, Y81W, I83A
B37: CD71-binding FN3 domain SEQ ID NO: 250 (designed binder)
chain: B30 chain with V70W, F72Q, K77N, E80N, Y81W, I83A

Molecular target: T1, apical domain of cynomolgus CD71 (cynomolgus, UniProt A0A2K5X958 189-383)
T1 construct: domain: apical domain; also called Cyno apical domain
T1 sequence (A0A2K5X958 entry or part of it): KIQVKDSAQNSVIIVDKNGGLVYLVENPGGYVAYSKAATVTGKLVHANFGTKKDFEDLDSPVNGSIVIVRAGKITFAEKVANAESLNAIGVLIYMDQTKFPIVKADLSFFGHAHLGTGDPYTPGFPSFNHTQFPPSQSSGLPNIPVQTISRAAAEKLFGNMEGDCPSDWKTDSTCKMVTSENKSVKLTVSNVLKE
Assay: primary ELISA; note: test concentration or dose not given here

Row | RLU | Binder
1 | 4.46e+06 RLU | B1
2 | 5.99e+06 RLU | B2
3 | 4.95e+06 RLU | B3
4 | 5.27e+06 RLU | B4
5 | 5.46e+06 RLU | B5
6 | 5.14e+06 RLU | B6
7 | 5.49e+06 RLU | B7
8 | 4.72e+06 RLU | B8
9 | 6.07e+06 RLU | B9
10 | 6.59e+06 RLU | B10
11 | 4.71e+06 RLU | B11
12 | 4.84e+06 RLU | B12
13 | 5.93e+06 RLU | B13
14 | 7.01e+06 RLU | B14
15 | 6.36e+06 RLU | B15
16 | 6.09e+06 RLU | B16
17 | 6.09e+06 RLU | B17
18 | 6.23e+06 RLU | B18
19 | 6.67e+06 RLU | B19
20 | 5.96e+06 RLU | B20
21 | 4.41e+06 RLU | B21

Molecular target: T2, human CD71 extracellular domain (human, UniProt P02786 89-760)
T2 construct: also called hCD71; human CD71-ECD
T2 sequence (P02786 89-760): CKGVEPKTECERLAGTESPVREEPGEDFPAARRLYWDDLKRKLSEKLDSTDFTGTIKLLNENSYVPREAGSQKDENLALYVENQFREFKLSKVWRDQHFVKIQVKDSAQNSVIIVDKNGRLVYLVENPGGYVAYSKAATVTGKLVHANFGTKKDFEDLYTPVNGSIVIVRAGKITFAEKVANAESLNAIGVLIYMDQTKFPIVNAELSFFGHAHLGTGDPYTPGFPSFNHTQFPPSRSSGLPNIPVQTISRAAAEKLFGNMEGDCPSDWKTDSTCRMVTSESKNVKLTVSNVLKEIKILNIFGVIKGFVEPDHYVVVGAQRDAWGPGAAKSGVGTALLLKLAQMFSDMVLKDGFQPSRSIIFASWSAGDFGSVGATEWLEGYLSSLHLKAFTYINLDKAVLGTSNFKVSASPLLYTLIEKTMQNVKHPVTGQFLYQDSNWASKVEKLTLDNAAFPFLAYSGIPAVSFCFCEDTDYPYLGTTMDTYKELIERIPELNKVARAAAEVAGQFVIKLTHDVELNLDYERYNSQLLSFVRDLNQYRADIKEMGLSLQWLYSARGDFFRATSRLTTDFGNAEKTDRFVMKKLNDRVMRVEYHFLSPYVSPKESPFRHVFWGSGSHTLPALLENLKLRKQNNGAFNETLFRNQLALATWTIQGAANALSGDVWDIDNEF
Assay: primary ELISA; note: test concentration or dose not given here

Row | RLU | Binder
22 | 4.08e+06 RLU | B1
23 | 7.01e+06 RLU | B2
24 | 3.62e+06 RLU | B3
25 | 3.57e+06 RLU | B4
26 | 4.09e+06 RLU | B5
27 | 1.5e+06 RLU | B6
28 | 4.46e+06 RLU | B7
29 | 2.42e+06 RLU | B8
30 | 5.86e+06 RLU | B9
31 | 5.91e+06 RLU | B10
32 | 4.11e+06 RLU | B11
33 | 3.94e+06 RLU | B12
34 | 4.72e+06 RLU | B13
35 | 5.72e+06 RLU | B14
36 | 5.14e+06 RLU | B15
37 | 5.73e+06 RLU | B16
38 | 6.68e+06 RLU | B17
39 | 3.4e+06 RLU | B18
40 | 5.56e+06 RLU | B19
41 | 7.03e+06 RLU | B20
42 | 2.91e+06 RLU | B21

Molecular target: T1, apical domain of cynomolgus CD71
Assay: primary ELISA, signal ratio to HSA

Row | Cyno apical domain:HSA | Binder
43 | 298 | B1
44 | 272 | B2
45 | 116 | B3
46 | 95 | B4
47 | 325 | B5
48 | 225 | B6
49 | 296 | B7
50 | 149 | B8
51 | 232 | B9
52 | 275 | B10
53 | 45 | B11
54 | 39 | B12
55 | 83 | B13
56 | 199 | B14
57 | 196 | B15
58 | 14 | B16
59 | 251 | B17
60 | 66 | B18
61 | 208 | B19
62 | 218 | B20
63 | 142 | B21

Molecular target: T2, human CD71 extracellular domain
Assay: primary ELISA, signal ratio to HSA

Row | hCD71:HSA | Binder
64 | 273 | B1
65 | 319 | B2
66 | 84 | B3
67 | 65 | B4
68 | 243 | B5
69 | 65 | B6
70 | 240 | B7
71 | 77 | B8
72 | 224 | B9
73 | 246 | B10
74 | 39 | B11
75 | 32 | B12
76 | 66 | B13
77 | 163 | B14
78 | 158 | B15
79 | 13 | B16
80 | 275 | B17
81 | 36 | B18
82 | 173 | B19
83 | 257 | B20
84 | 94 | B21

Molecular target: T3, human CD71 extracellular domain (CD71-ECD) (human, UniProt P02786 89-760)
T3 construct: also called hCD71; human CD71-ECD
T3 sequence (P02786 89-760): as above
Assay: primary ELISA; note: test concentration or dose not given here

Row | RLU | Binder
85 | 3.8e+06 RLU | B22
86 | 3.98e+06 RLU | B23
87 | 1.61e+06 RLU | B24
88 | 4.09e+06 RLU | B25
89 | 2.39e+06 RLU | B26
90 | 1.88e+06 RLU | B27
91 | 3.02e+06 RLU | B28
92 | 2.89e+06 RLU | B29
93 | 3.25e+06 RLU | B30
94 | 3.29e+06 RLU | B31
95 | 3.68e+06 RLU | B32
96 | 3.86e+06 RLU | B33
97 | 3.49e+06 RLU | B34
98 | 3.73e+06 RLU | B35
99 | 3.29e+06 RLU | B36
100 | 3.41e+06 RLU | B37

Molecular target: T3, human CD71 extracellular domain …
Assay: primary ELISA, RLU ratio to HSA

Row | hCD71:HSA | Binder
101 | 376 | B22
102 | 535 | B23
103 | 165 | B24
104 | 724 | B25
105 | 193 | B26
106 | 154 | B27
107 | 350 | B28
108 | 442 | B29
109 | 392 | B30
110 | 289 | B31
111 | 362 | B32
112 | 576 | B33
113 | 375 | B34
114 | 90 | B35
115 | 101 | B36
116 | 140 | B37
